Reference: the supplement of paper PMC11246515
± gives the standard deviation of the averaged measurements.

Assay: total protein half-life in vivo (active degradation + dilution); higher = more stable protein
[1] = E. coli NCM3722 delta-clpP delta-lon delta-hslV, growth: N-lim chemostat, doubling time 6 h
[2] = E. coli NCM3722 delta-clpP, growth: N-lim chemostat, doubling time 6 h
[3] = E. coli NCM3722 delta-hslV, growth: N-lim chemostat, doubling time 6 h
[4] = E. coli NCM3722 delta-lon, growth: N-lim chemostat, doubling time 6 h
[5] = E. coli NCM3722 delta-smpB, growth: N-lim chemostat, doubling time 6 h
[6] = wild type E. coli NCM3722, growth: C-lim chemostat, doubling time 3 h
[7] = wild type E. coli NCM3722, growth: C-lim chemostat, doubling time 6 h
[8] = wild type E. coli NCM3722, growth: C-lim chemostat, doubling time 12 h
[9] = wild type E. coli NCM3722, growth: N-lim chemostat, doubling time 6 h
[10] = wild type E. coli NCM3722, growth: N-lim chemostat, doubling time 12 h
[11] = wild type E. coli NCM3722, growth: P-lim chemostat, doubling time 6 h
[12] = wild type E. coli NCM3722, growth: P-lim chemostat, doubling time 12 h

Sequence	total protein half-life in vivo [1] [h]	total protein half-life in vivo [2] [h]	total protein half-life in vivo [3] [h]	total protein half-life in vivo [4] [h]	total protein half-life in vivo [5] [h]	total protein half-life in vivo [6] [h]	total protein half-life in vivo [7] [h]	total protein half-life in vivo [8] [h]	total protein half-life in vivo [9] [h]	total protein half-life in vivo [10] [h]	total protein half-life in vivo [11] [h]	total protein half-life in vivo [12] [h]
MTLRKILALTCLLLPMMASAHQFETGQRVPPIGITDRGELVLDKDQFSYKTWNSAQLVGKVRVLQHIAGRTSAKEKNATLIEAIKSAKLPHDRYQTTTIVNTDDAIPGSGMFVRSSLESNKKLYPWSQFIVDSNGVALGAWQLDEESSAVVVLDKDGRVQWAKDGALTPEEVQQVMDLLQKLLK	3.41 ± 0.29	4.29 ± 0.11	5.19	5.62 ± 0.11	5.29 ± 0.49	2.78 ± 0.033	4.952 ± 0.046	7.33 ± 1.6	5.43 ± 0.29	7.61 ± 2.1	4.74 ± 1.5	8.359 ± 0.082
MTLSSQHYLVITALGADRPGIVNTITRHVSSCGCNIEDSRLAMLGEEFTFIMLLSGSWNAITLIESTLPLKGAELDLLIVMKRTTARPRPPMPASVWVQVDVADSPHLIERFTALFDAHHMNIAELVSRTQPAENERAAQLHIQITAHSPASADAANIEQAFKALCTELNAQGSINVVNYSQHDEQDGVK [P0A9I3]	4.9 ± 0.79	4.39 ± 0.19	4.53 ± 0.06	4.62 ± 0.24	4.056 ± 0.037	2.976 ± 0.012	5.48 ± 0.32	9.43 ± 3.2	4.42 ± 0.34	7.51 ± 0.33	5.71 ± 0.46	12.1 ± 1.4
MTMKKLLIIILPVLLSGCSAFNQLVERMQTDTLEYQCDEKPLTVKLNNPRQEVSFVYDNQLLHLKQGISASGARYTDGIYVFWSKGDEATVYKRDRIVLNNCQLQNPQR	5.8 ± 0.46	6.62 ± 0.99	6.27	6.49 ± 0.45	5.45 ± 0.23	3.27 ± 0.96	6.52 ± 1.3	13.5 ± 0.37		14.4 ± 0.55	6.32 ± 0.75	13.8 ± 1.6
MTMNITSKQMEITPAIRQHVADRLAKLEKWQTHLINPHIILSKEPQGFVADATINTPNGVLVASGKHEDMYTAINELINKLERQLNKLQHKGEARRAATSVKDANFVEEVEEE [P0AD49]	6.33 ± 1.1	4.87	1.49		0.687	0.852 ± 0.17	2.32	2.47 ± 0.42		1.07		1.59
MTMYATLEEAIDAAREEFLADNPGIDAEDANVQQFNAQKYVLQDGDIMWQVEFFADEGEEGECLPMLSGEAAQSVFDGDYDEIEIRQEWQEENTLHEWDEGEFQLEPPLDTEEGRAAADEWDER		6.11	3.33	3.3 ± 0.71	3.22 ± 0.1	2.35 ± 0.29	3.94 ± 0.066	6.75 ± 1.1	3.33 ± 0.17	4.03	3.9 ± 0.2	7.26
MTNLTLDVNIIDFPSIPVAMLPHRCSPELLNYSVAKFIMWRKETGLSPVNQSQTFGVAWDDPATTAPEAFRFDICGSVSEPIPDNRYGVSNGELTGGRYAVARHVGELDDISHTVWGIIRHWLPASGEKMRKAPILFHYTNLAEGVTEQRLETDVYVPLA	6.15											
MTNNPPSAQIKPGEYGFPLKLKARYDNFIGGEWVAPADGEYYQNLTPVTGQLLCEVASSGKRDIDLALDAAHKVKDKWAHTSVQDRAAILFKIADRMEQNLELLATAETWDNGKPIRETSAADVPLAIDHFRYFASCIRAQEGGISEVDSETVAYHFHEPLGVVGQIIPWNFPLLMASWKMAPALAAGNCVVLKPARLTPLSVLLLMEIVGDLLPPGVVNVVNGAGGVIGEYLATSKRIAKVAFTGSTEVGQQIMQYATQNIIPVTLELGGKSPNIFFADVMDEEDAFFDKALEGFALFAFNQGEVCTCPSRALVQESIYERFMERAIRRVESIRSGNPLDSVTQMGAQVSHGQLETILNYIDIGKKEGADVLTGGRRKLLEGELKDGYYLEPTILFGQNNMRVFQEEIFGPVLAVTTFKTMEEALELANDTQYGLGAGVWSRNGNLAYKMGRGIQAGRVWTNCYHAYPAHAAFGGYKQSGIGRETHKMMLEHYQQTKCLLVSYSDKPLGLF		4.04 ± 0.7	2.42 ± 0.5	2.83 ± 0.035	2.42 ± 0.14	2.73 ± 0.41	5.1 ± 0.31	7.87 ± 0.019	2.77 ± 0.77	4.07 ± 0.55	3.08 ± 1.1	6.36 ± 0.73
MTNPQFAGHPFGTTVTAETLRNTFAPLTQWEDKYRQLIMLGKQLPALPDELKAQAKEIAGCENRVWLGYTVAENGKMHFFGDSEGRIVRGLLAVLLTAVEGKTAAELQAQSPLALFDELGLRAQLSASRSQGLNALSEAIIAATKQV [P0AGF2]	4.97 ± 0.16	4.73 ± 0.56	4.9 ± 0.33	5.38 ± 0.38	4.87 ± 0.87	3.4 ± 0.066	5.18 ± 0.76	8.98 ± 0.8	4.504 ± 0.012	8.14 ± 0.94	5.64 ± 0.32	11.1 ± 0.35
MTNVLIVEDEQAIRRFLRTALEGDGMRVFEAETLQRGLLEAATRKPDLIILDLGLPDGDGIEFIRDLRQWSAVPVIVLSARSEESDKIAALDAGADDYLSKPFGIGELQARLRVALRRHSATTAPDPLVKFSDVTVDLAARVIHRGEEEVHLTPIEFRLLAVLLNNAGKVLTQRQLLNQVWGPNAVEHSHYLRIYMGHLRQKLEQDPARPRHFITETGIGYRFML	5.392 ± 0.013	5.1 ± 0.7	5.29 ± 0.32	4.99 ± 0.47	4.92 ± 0.36	3.04 ± 0.1	5.35 ± 0.76	10.1 ± 0.52	5.05 ± 0.32	9.806 ± 0.011	5.79 ± 0.17	10.1 ± 2
MTNYSLRARMMILILAPTVLIGLLLSIFFVVHRYNDLQRQLEDAGASIIEPLAVSTEYGMSLQNRESIGQLISVLHRRHSDIVRAISVYDENNRLFVTSNFHLDPSSMQLGSNVPFPRQLTVTRDGDIMILRTPIISESYSPDESPSSDAKNSQNMLGYIALELDLKSVRLQQYKEIFISSVMMLFCIGIALIFGWRLMRDVTGPIRNMVNTVDRIRRGQLDSRVEGFMLGELDMLKNGINSMAMSLAAYHEEMQHNIDQATSDLRETLEQMEIQNVELDLAKKRAQEAARIKSEFLANMSHELRTPLNGVIGFTRLTLKTELTPTQRDHLNTIERSANNLLAIINDVLDFSKLEAGKLILESIPFPLRSTLDEVVTLLAHSSHDKGLELTLNIKSDVPDNVIGDPLRLQQIITNLVGNAIKFTENGNIDILVEKRALSNTKVQIEVQIRDTGIGIPERDQSRLFQAFRQADASISRRHGGTGLGLVITQKLVNEMGGDISFHSQPNRGSTFWFHINLDLNPNIIIEGPSTQCLAGKRLAYVEPNSAAAQCTLDILSETPLEVVYSPTFSALPPAHYDMMLLGIAVTFREPLTMQHERLAKAVSMTDFLMLALPCHAQVNAEKLKQDGIGACLLKPLTPTRLLPALTEFCHHKQNTLLPVTDESKLAMTVMAVDDNPANLKLIGALLEDMVQHVELCDSGHQAVERAKQMPFDLILMDIQMPDMDGIRACELIHQLPHQQQTPVIAVTAHAMAGQKEKLLGAGMSDYLAKPIEEERLHNLLLRYKPGSGISSRVVTPEVNEIVVNPNATLDWQLALRQAAGKTDLARDMLQMLLDFLPEVRNKVEEQLVGENPEGLVDLIHKLHGSCGYSGVPRMKNLCQLIEQQLRSGTKEEDLEPELLELLDEMDNVAREASKILG [P0AEC5]	6.36 ± 0.23	5.96 ± 0.43	6.35 ± 0.93	6.05 ± 1.2	5.8 ± 0.066	3.45 ± 0.058	5.985 ± 0.046	10.5 ± 1.6		13.1 ± 0.83	6.32 ± 0.066	11.4 ± 0.16
MTPDELARLTGYSRQTINKWVRKEGWTTSPKPGVQGGKARLVHVNEQVREYIRNAERPEGQGEAPALSGDAPLEVLLVTLAKEMTPVEQKQFTSLLLREGIIGLLQRLGIRDSK [P0AD37]						1.89						
MTPFMTEDFLLDTEFARRLYHDYAKDQPIFDYHCHLPPQQIAEDYRFKNLYDIWLKGDHYKWRAMRTNGVAERLCTGDASDREKFDAWAATVPHTIGNPLYHWTHLELRRPFGITGKLLSPSTADEIWNECNELLAQDNFSARGIMQQMNVKMVGTTDDPIDSLEHHAEIAKDGSFTIKVLPSWRPDKAFNIEQATFNDYMAKLGEVSDTDIRRFADLQTALTKRLDHFAAHGCKVSDHALDVVMFAEANEAELDSILARRLAGETLSEHEVAQFKTAVLVFLGAEYARRGWVQQYHIGALRNNNLRQFKLLGPDVGFDSINDRPMAEELSKLLSKQNEENLLPKTILYCLNPRDNEVLGTMIGNFQGEGMPGKMQFGSGWWFNDQKDGMERQMTQLAQLGLLSRFVGMLTDSRSFLSYTRHEYFRRILCQMIGRWVEAGEAPADINLLGEMVKNICFNNARDYFAIELN [P0A8G3]	4.91 ± 0.32	4.13 ± 0.56	4.83 ± 1.5	4.12 ± 0.18	3.84 ± 0.12	2.87 ± 0.56	5.94 ± 0.12	11.9 ± 0.95	4.02 ± 0.48	6.3 ± 0.21	5.26 ± 0.087	9.95 ± 0.88
MTPGGQAQIGNVDLVKQLNSAAVYRLIDQYGPISRIQIAEQSQLAPASVTKITRQLIERGLIKEVDQQASTGGRRAISIVTETRNFHAIGVRLGRHDATITLFDLSSKVLAEEHYPLPERTQQTLEHALLNAIAQFIDSYQRKLRELIAISVILPGLVDPDSGKIHYMPHIQVENWGLVEALEERFKVTCFVGHDIRSLALAEHYFGASQDCEDSILVRVHRGTGAGIISNGRIFIGRNGNVGEIGHIQVEPLGERCHCGNFGCLETIAANAAIEQRVLNLLKQGYQSRVPLDDCTIKTICKAANKGDSLASEVIEYVGRHLGKTIAIAINLFNPQKIVIAGEITEADKVLLPAIESCINTQALKAFRTNLPVVRSELDHRSAIGAFALVKRAMLNGILLQHLLEN [P0AF20]	5.96 ± 0.13	6.14 ± 0.17	5.92 ± 0.068	6.27 ± 0.59	5.92 ± 1.2	2.98 ± 0.067	6.44 ± 0.24	11.3 ± 1.7	5.9 ± 0.28	13 ± 0.3	6.58 ± 0.7	15.1 ± 0.32
